B1: Ras-related protein Rab-27A (Homo sapiens), P51159-1 (parent)
chain: MSDGDYDYLIKFLALGDSGVGKTSVLYQYTDGKFNSKFITTVGIDFREKRVVYRASGPDGATGRGQRIHLQLWDTAGQERFRSLTTAFFRDAMGFLLLFDLTNEQSFLNVRNWISQLQMHAYCENPDIVLCGNKSDLEDQRVVKEEEAIALAEKYGIPYFETSAANGTNISQAIEMLLDLIMKRMERCVDKSWIPEGVVRSNGHASTDQLSEEKEKGACGC
partner: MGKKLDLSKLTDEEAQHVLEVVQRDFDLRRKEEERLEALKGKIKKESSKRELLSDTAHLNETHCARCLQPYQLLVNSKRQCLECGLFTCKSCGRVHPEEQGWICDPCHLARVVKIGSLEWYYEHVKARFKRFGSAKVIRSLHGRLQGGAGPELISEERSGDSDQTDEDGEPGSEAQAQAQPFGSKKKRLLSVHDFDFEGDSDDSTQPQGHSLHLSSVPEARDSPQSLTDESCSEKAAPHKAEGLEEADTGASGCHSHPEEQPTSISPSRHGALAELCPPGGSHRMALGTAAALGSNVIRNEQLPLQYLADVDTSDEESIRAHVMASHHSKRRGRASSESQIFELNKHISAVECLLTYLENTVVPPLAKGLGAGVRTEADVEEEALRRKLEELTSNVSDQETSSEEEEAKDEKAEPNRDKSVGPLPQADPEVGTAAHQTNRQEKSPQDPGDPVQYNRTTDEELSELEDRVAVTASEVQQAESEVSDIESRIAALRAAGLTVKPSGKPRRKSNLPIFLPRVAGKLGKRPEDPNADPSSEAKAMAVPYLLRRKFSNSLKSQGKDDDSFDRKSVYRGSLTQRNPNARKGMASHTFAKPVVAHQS

Variants of: B1
Conditions: with melph_human MLPH

Row | Variant | effect of a mutation on the interaction
1 | MSDGDYDYLIKFLALGDSGVGKNSVLYQYTDGKFNSKFITTVGIDFREKRVVYRASGPDGATGRGQRIHLQLWDTAGQERFRSLTTAFFRDAMGFLLLFDLTNEQSFLNVRNWISQLQMHAYCENPDIVLCGNKSDLEDQRVVKEEEAIALAEKYGIPYFETSAANGTNISQAIEMLLDLIMKRMERCVDKSWIPEGVVRSNGHASTDQLSEEKEKGACGC [T23N] | disrupting interaction strength

Variants of: B1
Conditions: with melph_human MLPH
Remark: another data set of the same source

Row | Variant | effect of a mutation on the interaction
2 | MSDGDYDYLIKFLALGDSGVGKTSVLYQYTDGKFNSKFITTVGIDFREKRVVYRASGPDGATGRGQRIHLQLSDTAGQERFRSLTTAFFRDAMGFLLLFDLTNEQSFLNVRNWISQLQMHAYCENPDIVLCGNKSDLEDQRVVKEEEAIALAEKYGIPYFETSAANGTNISQAIEMLLDLIMKRMERCVDKSWIPEGVVRSNGHASTDQLSEEKEKGACGC [W73S] | disrupting interaction strength
3 | MSDGDYDYLIKFLALGDSGVGKTSVLYQYTDGKFNSKFITTVGIDFREKRVVYRASGPDGATGRGQRIHLQLLDTAGQERFRSLTTAFFRDAMGFLLLFDLTNEQSFLNVRNWISQLQMHAYCENPDIVLCGNKSDLEDQRVVKEEEAIALAEKYGIPYFETSAANGTNISQAIEMLLDLIMKRMERCVDKSWIPEGVVRSNGHASTDQLSEEKEKGACGC [W73L] | disrupting interaction strength
4 | MSDGDYDYLIKFLALGDSGVGKTSVLYQYTDGKFNSKFITTVGIDFREKRVVYRASGPDGATGRGQRIHLQLGDTAGQERFRSLTTAFFRDAMGFLLLFDLTNEQSFLNVRNWISQLQMHAYCENPDIVLCGNKSDLEDQRVVKEEEAIALAEKYGIPYFETSAANGTNISQAIEMLLDLIMKRMERCVDKSWIPEGVVRSNGHASTDQLSEEKEKGACGC [W73G] | disrupting interaction strength

From IntAct's records for PubMed 12446441
